T1: full length mouse PAR-2 (mouse, UniProt P55086 26-399)
T1 construct: also called 293/D9/mPAR-2rec cells
T1 chain: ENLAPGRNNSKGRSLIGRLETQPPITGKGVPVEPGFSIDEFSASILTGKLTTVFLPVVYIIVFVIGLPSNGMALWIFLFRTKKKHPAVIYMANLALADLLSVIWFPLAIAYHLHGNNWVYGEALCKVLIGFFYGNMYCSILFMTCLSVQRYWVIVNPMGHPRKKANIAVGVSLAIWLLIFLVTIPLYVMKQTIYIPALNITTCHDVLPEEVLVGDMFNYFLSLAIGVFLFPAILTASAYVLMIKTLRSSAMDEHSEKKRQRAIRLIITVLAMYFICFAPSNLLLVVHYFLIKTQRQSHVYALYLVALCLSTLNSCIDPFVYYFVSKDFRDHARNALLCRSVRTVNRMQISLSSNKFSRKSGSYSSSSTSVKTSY

T2: C-terminal biotinylated human PAR-2 peptide SEQ ID NO:878 (Lys-41 to Ala) (human, not fully specified; C-terminal biotin (K-B))
T2 construct: alanine-scan mutant
T2 peptide: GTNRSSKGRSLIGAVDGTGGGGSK

T3: C-terminal biotinylated human PAR-2 peptide SEQ ID NO:873 (Arg-36 to Ala) (human, not fully specified; C-terminal biotin (K-B))
T3 construct: alanine-scan mutant
T3 peptide: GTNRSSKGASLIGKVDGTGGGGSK

T4: C-terminal biotinylated human PAR-2 peptide SEQ ID NO:877 (Gly-40 to Ala) (human, not fully specified; C-terminal biotin (K-B))
T4 construct: alanine-scan mutant
T4 peptide: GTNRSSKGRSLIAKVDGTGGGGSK

T5: C-terminal biotinylated human PAR-2 peptide SEQ ID NO:876 (Ile-39 to Ala) (human, not fully specified; C-terminal biotin (K-B))
T5 construct: alanine-scan mutant
T5 peptide: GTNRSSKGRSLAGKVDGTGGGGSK

T6: C-terminal biotinylated human PAR-2 peptide SEQ ID NO:881 (Gly-44 to Ala) (human, not fully specified; C-terminal biotin (K-B))
T6 construct: alanine-scan mutant
T6 peptide: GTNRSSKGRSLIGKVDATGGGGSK

T7: C-terminal biotinylated human PAR-2 peptide SEQ ID NO:880 (Asp-43 to Ala) (human, not fully specified; C-terminal biotin (K-B))
T7 construct: alanine-scan mutant
T7 peptide: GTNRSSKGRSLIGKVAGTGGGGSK

T8: C-terminal biotinylated human PAR-2 peptide SEQ ID NO:871 (wild-type) (human, not fully specified; C-terminal biotin (K-B))
T8 construct: also called WT peptide
T8 peptide: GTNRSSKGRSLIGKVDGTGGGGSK

T9: C-terminal biotinylated human PAR-2 peptide SEQ ID NO:874 (Ser-37 to Ala) (human, not fully specified; C-terminal biotin (K-B))
T9 construct: alanine-scan mutant
T9 peptide: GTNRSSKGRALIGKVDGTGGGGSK

T10: C-terminal biotinylated human PAR-2 peptide SEQ ID NO:875 (Leu-38 to Ala) (human, not fully specified; C-terminal biotin (K-B))
T10 construct: alanine-scan mutant
T10 peptide: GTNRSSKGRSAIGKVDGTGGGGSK

T11: C-terminal biotinylated human PAR-2 peptide SEQ ID NO:882 (Thr-45 to Ala) (human, not fully specified; C-terminal biotin (K-B))
T11 construct: alanine-scan mutant
T11 peptide: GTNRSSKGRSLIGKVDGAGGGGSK

T12: C-terminal biotinylated human PAR-2 peptide SEQ ID NO:879 (Val-42 to Ala) (human, not fully specified; C-terminal biotin (K-B))
T12 construct: alanine-scan mutant
T12 peptide: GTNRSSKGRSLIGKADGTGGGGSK

B1: H4H588N (antibody, human IgG4, V domains shown)
VH: EVQLLESGGGLVQPGGSLRLSCAASGFTFSSYAMTWVRQAPGKGLYWVSAISGGRGSAYYADSVKGRFTISRDNSKNTLYLQMNSLRAEDTAVYYCAKEGDSGYDLAYWGRGTLVTVSS
VL: DIQMTQSPSSLSASVGDRVTITCRARQGISNNLAWLQQKPGKAPKSLIYAASSLQSGIPSKFSGSGSGTYFTLTISSLQPEDFATYYCQQYKSSPLTFGGGTKVEIK
notes: also called H2M588N variable regions
B2: H4H583P (antibody, human IgG4, V domains shown)
VH: QVQLVESGGGVVQPGMSLRLSCTASGFTFRRYGMHWVRQAPGKGLEWVAVIWYDGSNKYYADSVKGRFTITRDNSKNTLYLQMNSLRAEDTAIYFCASEITIGDWFDPRGQGTLVTVSS
VL: AIQMTQSPSSLSASVGDRVTITCRASQGIRNDLGWFQQKPGKVPKLLIYAASTLHSGVPSRFSGSGFGTDFTLTISSLQPEDFATYYCLQDFNYPLTFGGGTKVEIK
notes: also called H1H583P variable regions
B3: H4H581P (antibody, human IgG4, V domains shown)
VH: QVQLVESGGGVVQPGRSLRLSCVASGFTFSRYGIHWVRQAPGKGLEWVIVISYDGINKYYADSVKGRFTISRDNSKNTVYLQMNSLRAEDTAVYYCAKGDFWSGYFDYWGQGTLVTVSS
VL: DIVMTQTPLSSPVTLGQPASISCRSSQSLVHSDGNTYLSWLHQRPGQPPRLLIYKISNRFSGVPDRFSGSGAGTDFTLQISRVEAEDVGIYYCMQATQFPTFGGGTKVEIK
notes: also called mAb H4H581P; H1H581P variable regions

What was measured:
full length mouse PAR-2 = molecular target: T1, full length mouse PAR-2; test: MSD cell binding
How it was run: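 Antibodies, two-fold dilutions from 100 nM to 0.098 nM, bound for 1 h at room temperature to HEK293/D9 cells stably expressing human or mouse PAR-2, detected by sulfo-tagged anti-human IgG electrochemiluminescence. Parental 293/D9 signal was subtracted; EC50 and Bmax came from sigmoidal dose-response fits.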

[1] = molecular target: T2, C-terminal biotinylated human PAR-2 …; test: BLI Exp1
Procedure: (§1) In order to more particularly identify the amino acids of PAR-2 with which the PAR-2 antibodies interact, an alanine scanning study was carried out using peptides comprising the activating PAR-2 protease cleavage site.
(§2) The ability of each peptide mutant to bind to PAR-2 antibodies was measured using biolayer interferometry (Octet Red; ForteBio). Each peptide (2.5 μg/ml) was captured on streptavidin coated biosensor tips (Octet SA sensor) for 10 seconds. To measure binding and dissociation between each peptide and PAR-2 antibody, the peptide-coated biosensors were contacted with 200 nM solutions of PAR-2 antibodies for 5 minutes (binding) followed by transfer to buffer with no antibody for 10 min (dissociation). […] The results are expressed as percent binding and percent T_{1/2} relative to WT peptide (Tables 24-28).

[2] = molecular target: T3, C-terminal biotinylated human PAR-2 …; test: BLI Exp1
Procedure: as §1, §2

[3] = molecular target: T4, C-terminal biotinylated human PAR-2 …; test: BLI Exp1
Procedure: as §1, §2

[4] = molecular target: T5, C-terminal biotinylated human PAR-2 …; test: BLI Exp1
Procedure: as §1, §2

[5] = molecular target: T6, C-terminal biotinylated human PAR-2 …; test: BLI Exp1
Procedure: as §1, §2

[6] = molecular target: T7, C-terminal biotinylated human PAR-2 …; test: BLI Exp1
Procedure: as §1, §2

[7] = molecular target: T8, C-terminal biotinylated human PAR-2 …; test: BLI Exp1
Procedure: as §1, §2

[8] = molecular target: T9, C-terminal biotinylated human PAR-2 …; test: BLI Exp1
Procedure: as §1, §2

[9] = molecular target: T10, C-terminal biotinylated human PAR-2 …; test: BLI Exp1
Procedure: as §1, §2

[10] = molecular target: T11, C-terminal biotinylated human PAR-2 …; test: BLI Exp1
Procedure: as §1, §2

[11] = molecular target: T12, C-terminal biotinylated human PAR-2 …; test: BLI Exp1
Procedure: as §1, §2

Row | Binder | % Rel Binding [1] [%] | % Rel T1/2 [1] [%] | % Rel Binding [2] [%] | % Rel T1/2 [2] [%] | % Rel Binding [3] [%] | % Rel T1/2 [3] [%] | % Rel Binding [4] [%] | % Rel T1/2 [4] [%] | % Rel Binding [5] [%] | % Rel T1/2 [5] [%] | % Rel Binding [6] [%] | % Rel T1/2 [6] [%] | % Rel Binding [7] [%] | % Rel T1/2 [7] [%] | % Rel Binding [8] [%] | % Rel T1/2 [8] [%] | % Rel Binding [9] [%] | % Rel T1/2 [9] [%] | % Rel Binding [10] [%] | % Rel T1/2 [10] [%] | further results
1 | B1 | 217 | 108 | 208 | 100 | 30 | 1 | 92 | 36 | 81 | 1 | 35 | 4 | 100 | 100 | 119 | 100 | 127 | 100 | 125 | 94 | binding result (full length mouse PAR-2): no binding (tested: 100 nM to 0.098 nM antibody); % Rel Binding [11]: 74%; % Rel T1/2 [11]: 1%
2 | B2 |  |  |  |  |  |  |  |  |  |  |  |  |  |  |  |  |  |  |  |  | Bmax (full length mouse PAR-2): 7220 MSD Unit; EC50 (full length mouse PAR-2): 9.28 nM
3 | B3 | 113 | 63 | 87 | 122 | 101 | 33 | 8 | 0.2 | 67 | 117 | 18 | 36 | 100 | 100 | 45 | 7 | 9 | 0.4 | 65 | 129 | % Rel Binding [11]: 36%; % Rel T1/2 [11]: 1%

From patent publication US20110059095A1 (Regeneron, published 2011)
